Target: T1, Human CD22 extracellular segment conjugated His label (human, UniProt P20273 20-687)
T1 construct: extracellular domain; Bought recombinant protein; also called h CD22-His; hCD22-His; not shown: His label
Experiment: ELISA, h CD22-His coated at 2 µg/ml, antibody in 3-fold dilutions
Text: M971 was a 7 epitope humanized CD22 antibody. The specific sequence and information can be found publicly. The antibody was synthesized by Shenzhen FeipengBiological therapy Co., LTD.

Row | Binder | binding result
1 | CD22 antibody FC2-117 (antibody, IgG1, V domains shown, Mouse hybridoma monoclonal antibody) VH: DVQLQESGPGLVKPSQSLSLTCSVTGYSITSGYYWNWIRQFPGNKLEWMGYISYDGSNNYNPSLKNRISITRDTSKNQFFLKLNSVTTEDTATYYCTKGGYGYYFDYWGQGTTLTVSS VL: DIQMTQSPASLSASVGETVTITCRASGNIHNYLAWYQQKQGKSPQLLVYNAKTLADGVPSRFSGSGSGTQYSLKINSLQPEDFGSYYCQHFWSTPPTFGGGTKLEIKR | binds
2 | CD22 antibody FC2-201 (antibody, IgG2b, V domains shown, Mouse hybridoma monoclonal antibody) VH: KVQLQQSGAGLVKPGASVKLSCKASGYTFTDSILHWLMQRSGQGLEWIGWFYPGSGSIKYNEKFKDKATLTADKSSSTVYMELSRLTSEDSAFYFCARHEDGYDGFAYWGQGTLVTVSA VL: ENVLTQSPAIMSASLGEKVTMSCRASSSVNYIFWYQQKSDASPKLWIYYTSNLAPGVPARFSGSGSGNSYSLTISSMEGEDAATYYCQQFTSSPFTFGSGTKLEIKR | binds

— US20230331840A1 (FAPON BIOTHERAPY, published 2023)
